Results reported in patent publication US8673270B2, “RGD-containing peptidomimetics and uses thereof” (priority 2008, dated 2014).
Read-outs that look alike come from different tables or passages of the source.

Experiments:
[1] = molecular target: T1, human αvβ3 integrin (Homo sapiens, UniProt P05106+P06756); experiment: Competitive binding experiments (determination of IC50) against c[RGDfK]-biotin, ELISA; settings: competition with c[RGDfK]-biotin (10^−3M), coated integrin
T1 construct: purchased Chemicon
Protocol: (viii) Integrin binding test by ELISA. Nunc immuno-module strips (Nunclon, Cat#167008, Daniel Biotech, Israel) were coated for overnight with 2 μg/ml human integrin αvβ3 (Chemicon, Cat#CC1020, Biotest, Israel) dissolved in 0.06 M carbonate-bicarbonate buffer. Strips were blocked for 2 hrs at RT with 2% bovine serum albumin (BSA) (Sigma, Cat#A-9647, Israel) in phosphate buffered saline (PBS) (Biological Industries, Israel). A mixture of c[RGDfK]-biotin (10^−3M) and a test compound at different concentrations (10^−2, 10^−3, 10^−4 and 10^−5M) diluted in assay buffer (50 mM Tris HCl, pH=7.7, 0.5% BSA, 0.15 M NaCl, 0.01% Tween 20) was added to the coated strips and was incubated overnight at RT with shaking. After washing with PBS, anti-biotin antibodies labeled by alkaline phosphatase (1:200) (Miltenyi Biotec, Almog, Israel) were added and incubated for 1 hr at RT. The samples were incubated with p-nitrophenyl phosphate substrate (p-NPP, Calbiochem, Mercury, Israel) and read at 405 nm.
(xvi) Competitive binding experiments (determination of IC50). Immuno-module strips MAXISORP (Nunc, Danyel Biotech, Israel) were coated with 50 μl/well of 2 μg/ml human αvβ3 integrin (Chemicon, USA) overnight and blocked with 2% BSA (Sigma, Israel) for 2 hrs at RT. After wash with Tris buffered saline-Tween (TBST) buffer, a mixture of RGD peptide c[RGDfK]-biotin (10^−3M) and the tested RGD-conjugate at different concentrations (10^−2, 10^−3, 10^−4 and 10^−5 M) was added in triplicates and was incubated overnight and shaken at RT. After wash with PBS buffer, anti-biotin antibodies labeled by alkaline phosphatase (1:200) (Miltenyi Biotec, Germany) were added and incubated for 1 hr at RT. The samples were incubated with p-NPP substrate and read at 405 nm on Multiscan Spectrum (Labotal, Israel). The data were plotted to graph of dependence of binding percent out of concentration of RGD-conjugate and IC50 value was determined. […]

[2] = Toxicity study on rats; format: in vivo; settings: 50 mg/kg into tail vein; for Necrosis or inflammation in liver or kidneys: after five days
Protocol: The various conjugates at dose of 50 mg/kg were injected into the tail vein during 1-2 min.

[3] = tested on: MLS human ovarian carcinoma cells; experiment: Integrin binding assay (in vitro), fluorescence imaging of cells incubated with conjugate; format: cell-based; settings: 100 μM/well, 3 hrs at 37° C., IVIS imaging
Protocol: (xv) In-vitro binding assay. MLS human ovarian carcinoma cells were cultured as monolayers in minimum essential medium (MEM-alpha) containing 1 g/l D-glucose, pH 7.4, 10% fetal calf serum (FCS), glutamine (2 mM), penicillin (0.06 mg/ml) and streptomycin (0.1 mg/ml), and were grown at 37° C. in 5% CO2-humidified atmosphere. At 48 hrs before experiment, cells were seeded at 6 well plates (3×10^5 cells/well).
Expression of αvβ3 integrin on MLS cells. The cells were grown on cover slips. Following overnight serum starvation, fixation with 4% paraformaldehyde (Sigma, Israel) and permeabilization with 0.2% Triton X-100 (Sigma, Israel), cells were incubated in blocking solution (10% of horse serum) (Biological Industries, Israel) for 1 hr at RT. Cells were then incubated with mouse anti-human αvβ3 integrin antibodies (1:100) (Chemicon, Biotest, Israel) for 1 hr at RT. Secondary rabbit FITC-labeled anti-mouse IgG (1:200) (Sigma, Israel) were applied to cells for 1 hr at RT. Imaging was performed by fluorescent microscope (Nikon Optiphot2, Japan) equipped with a digital camera (DVC Company, Inc., Austin, Tex.).
In vitro binding assay. RGD-conjugates were initially dissolved in DMSO to yields 4×10^−3 M. The stock solutions were then diluted 1:40 in culture medium and added into MILS or HT29 cells (100 μM/well). Cells were incubated at 37° C. in 5% CO2-humidified atmosphere for 3 hrs. Cells were then washed 3 times with PBS and images were performed on a Xenogen IVIS® 100 Series Imaging System. The excitation and emission filters set in the IVIS for BTA-RGD were 710-760 nm and 810-860 nm, respectively, and for FITC-RGD were 445-490 nm and 515-575 nm, respectively.

[4] = tested on: LNCaP prostate cancer cells; experiment: In-vivo prostate cancer model, IVIS imaging; settings: for Fluorescent level in excised organs: 14 hrs after injection, prostate and ovarian tumor-bearing mice; for Time of highest fluorescent level in tumor after injection: LNCaP prostate tumor
[5] = tested on: MDA-MB-231-RFP human breast cancer cells; experiment: In-vivo breast cancer model, orthotopic large necrotic tumor, IVIS imaging; parameters: species or system CD-1 nude mice; settings: six days post injection, necrotic tumors 1-1.5 cm^3
Protocol: (xii) In-vivo breast cancer model. Female CD-1 nude mice (6-8 weeks old, 20-25 g, obtained from Harlan Biotech Israel, Rehovot, Israel) were implanted with MDA-MB-23′-RFP human breast cancer cells (4×10^6 cells/mouse). […] When tumors reached the size of 1-1.5 cm^3 for necrotic tumors, mice were anaesthetized by IP injection of 30 μl mixture of 85:15 ketamine:xylazine, and the test conjugate (15 mg/kg) was then injected to the tail vein.
In this study, the specific accumulation pattern of conjugates 1, 4 and 41 in orthotopic primary lesions of mammary carcinoma model, monitored by fluorescence signal generated by the tumor, and the fluorescence signal generated by these conjugates were examined. The localization of the conjugates in the tumors as time progress was also determined. Animals were treated as described in Materials and Methods, and fluorscence of both tumor cells and conjugates 1, 4 and 41 was monitored by IVIS® 100 imaging system from day 1 to 7.
FIGS. 1A, 1B and 1C show the accumulation patterns of conjugates 1, 4 and 41, respectively, in orthotopic human breast MDA-MB-231-RFP primary large tumor in the mammary pad of CD-1 nude female mice, using the Xenogen IVIS® System. Whole animal images° were recorded concomitantly using filter sets comprising excitation filter 500-550 nm and emission filter 575-650 nm. Background filter set for subtraction the tissue auto fluorescence: excitation filter 460-490 nm and emission filter 575-650 nm. Photosensitizer imaging main filter set: excitation filter 665-695 nm, emission filter 810-875 nm.

[6] = tested on: MLS human ovarian carcinoma cells; parameters: species or system CD-1 nude mice; settings: mouse, in vivo
From the text: (ix) In-vivo ovarian carcinoma model. Female CD-1 nude mice (7-9 weeks old, 23-28 gr) were anaesthetized and subcutaneously (SC) implanted with MLS human ovarian carcinoma cells (obtained from Prof. M. Neeman, the Weizmann Institute of Science, Israel) suspension (2-3×10^6 cells/mouse). Tumors reached treatment size, diameter 6-8 mm, within 2-3 weeks.
Animals were anaesthetized by gas with mixture of 7:3 N2O:O2 containing 2% isofluorane (Medeva, Bethlehem, Pa.) or by intraperitoneal (IP) injection with mixture of 5 mg/kg ketamine (Rhone Merieux, Lyon, France) and 1 mg/kg pompun (Bayer, Leverkusen, Germany) (85:15, v:v).
(xiii) Fluorescent imaging protocol for BTA-RGD conjugates. Test compounds (8 mg/kg) were injected into the tail vein of IP anaesthetized tumor-bearing mice. Images of gas-anaesthetized animals were taken at 6, 8, 10, 12, 14 and 24 hrs (in some cases also at 48 and 72 hrs) after injection using IVIS® 100 Series Imaging System. The excitation and emission filters were set in the IVIS to 710-760 nm and to 810-860 nm, respectively. The emission filter with wavelength closest to the emission peak of the compound was selected among available filters in the standard configuration of IVIS.
(xiv) Fluorescent imaging protocol for FITC-RGD conjugates. Test compounds (8 mg/kg) were injected into the tail vein of IP anaesthetized tumor-bearing mice. Images of gas-anaesthetized animals were taken at 6 and 8 hrs after injection. Animals were sacrificed at 8 hrs, the organs (tumor, kidney, liver) were excited and images of the organs were taken using IVIS® 100 Series Imaging System. The excitation and emission filters were set in the IVIS to 445-490 nm and to 515-575 nm, respectively. The emission filter with wavelength closest to the emission peak of FITC was selected among available filters in the standard configuration of IVIS.

[7] = tested on: LNCaP prostate cancer cells; settings: mouse, in vivo

Row | Compound | IC50 [1] [µM] | Survival, behavior and motility [2] | Necrosis or inflammation in liver or kidneys [2] | Integrin binding assay (in vitro) [3] | Fluorescent level in excised organs [4] | Time of highest fluorescent level in tumor after injection [4] [h] | Localization of conjugate within breast tumor [5] | Time of highest fluorescent level in tumor after injection [6] [h] | Time the conjugate stayed in the tumor [6] | Time of highest fluorescent level in tumor after injection [7] [h]
1 | CCC1c2cc3[nH]c(c(CC(=O)OC)c4nc(cc5[nH]c(cc(n2)C1C)c(C(C)=O)c5C)C(C)C4CCC(=O)N[C@H]1CNC(=O)[C@H](CC(=O)O)NC(=O)CNC(=O)[C@H](CCCNC(=N)N)NC(=O)NCCNC1=O)c(C(=O)NCCS(=O)(=O)O)c3C (some centres unmarked) [Conjugate 1] | 100 | Animals were survived and did not show any behavior or motility problems | no evidence of necrosis or inflammation was found in the liver or the kidneys | Binding | high fluorescent level observed in the liver and kidney | 8 to 11 | Accumulate in the Necrotic Core of MDA Necrotic Tumors | 8 to 11 | up to 48 hrs | 
2 | CCC1c2cc3[nH]c(c(CC(=O)OC)c4nc(cc5[nH]c(cc(n2)C1C)c(C(C)=O)c5C)C(C)C4CCC(=O)N[C@H]1CCCNC(=O)[C@H](CC(=O)O)NC(=O)CNC(=O)[C@H](CCCNC(=N)N)NC(=O)NCCNC1=O)c(C(=O)NCCS(=O)(=O)O)c3C (some centres unmarked) [Conjugate 4] | 300 | Animals were survived and did not show any behavior or motility problems | no evidence of necrosis or inflammation was found in the liver or the kidneys | Binding | high fluorescent level observed in the liver and kidney | 8 to 14 | Accumulate in the Necrotic Core of MDA Necrotic Tumors | 8 to 14 | up to 48 hrs | 
3 | CCC1c2cc3[nH]c(c(CC(=O)OC)c4nc(cc5[nH]c(cc(n2)C1C)c(C(C)=O)c5C)C(C)C4CCC(=O)NCCCC[C@@H]1NC(=O)N[C@@H](Cc2ccccc2)C(=O)NC[C@@H](C(N)=O)NC(=O)[C@H](CC(=O)O)NC(=O)CNC(=O)[C@H](CCCNC(=N)N)NC1=O)c(C(=O)NCCS(=O)(=O)O)c3C (some centres unmarked) [Conjugate 41] | 100 | Animals were survived and did not show any behavior or motility problems | no evidence of necrosis or inflammation was found in the liver or the kidneys | In vitro: binding |  |  | Accumulate in the Necrotic Core of MDA Necrotic Tumors | 8 to 12 | ≤ 24 h | 8 to 12
